{"source": "paper PMC1919378", "about": "(BMC Structural Biology, 2007)", "key": {"Gnd1 (6PGDH/Gnd1)": {"molecular_target": "T1, Gnd1 (6PGDH/Gnd1) (Saccharomyces cerevisiae, UniProt P38720)", "T1 construct": "full length, 489 residues; pET28a-derived vector, E. coli Rosetta (DE3); homodimer; residues 1-476 seen in crystal", "T1 sequence (P38720 1-489)": "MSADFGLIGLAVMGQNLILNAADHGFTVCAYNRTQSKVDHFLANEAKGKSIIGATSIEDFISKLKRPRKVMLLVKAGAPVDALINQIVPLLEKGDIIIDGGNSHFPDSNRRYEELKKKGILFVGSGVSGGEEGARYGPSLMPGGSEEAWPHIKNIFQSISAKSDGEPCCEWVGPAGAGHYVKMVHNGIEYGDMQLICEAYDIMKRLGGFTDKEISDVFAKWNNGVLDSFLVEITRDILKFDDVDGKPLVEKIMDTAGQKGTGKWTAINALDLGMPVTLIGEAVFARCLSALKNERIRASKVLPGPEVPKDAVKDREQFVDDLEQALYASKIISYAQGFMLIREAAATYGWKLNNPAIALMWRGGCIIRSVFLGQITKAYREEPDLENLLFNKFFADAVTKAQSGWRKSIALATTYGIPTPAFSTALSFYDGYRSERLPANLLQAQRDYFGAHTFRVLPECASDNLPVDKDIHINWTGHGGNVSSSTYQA", "assay": "X-ray crystal structure, […] Å", "format": "binding", "conditions": "crystallised from 1.28 M tri-sodium citrate pH 6.5; two citrates per monomer in the 6-phosphogluconate site, contacts from both chains"}, "purified protein": {"substrate": "NC(=O)c1ccc[n+]([C@@H]2O[C@H](COP(=O)(O)OP(=O)(O)OC[C@H]3O[C@@H](n4cnc5c(N)ncnc54)[C@H](OP(=O)(O)O)[C@@H]3O)[C@@H](O)[C@H]2O)c1", "assay": "purified protein", "conditions": "co-substrate 6-phosphogluconate (0.1-0.5 mM, varied), Gly-Gly 50 mM pH 7.5, MgCl2 10 mM, 28°C, ionic strength 0.03"}, "[1]": {"molecular_target": "the molecule itself", "assay": "crystal structure; hanging-drop vapour diffusion at 15°C, 1.28 M tri-sodium citrate pH 6.5; 2.37 Å, molecular replacement; two citrate molecules bound to each monomer"}, "[2]": {"molecular_target": "the molecule itself", "assay": "SEC; dimer found 'through purification and crystallization'; purification by Ni2+ chromatography and gel filtration on Superdex 200 (20 mM Tris-HCl pH 8.0, 200 mM NaCl, 20 mM β-mercaptoethanol); 'homodimer in solution'"}}, "data": [{"molecule": "O=C(O)CC(O)(CC(=O)O)C(=O)O", "note": "[citrate]", "values": [{"measurement": "X-ray crystal structure, 2.37 Å", "setting": "Gnd1 (6PGDH/Gnd1)", "result": "two citrate molecules were bound to the active site of each Gnd1 monomer"}]}, {"molecule": "Saccharomyces cerevisiae 6-phosphogluconate dehydrogenase Gnd1 (enzyme, S. cerevisiae, UniProt P38720 1-489, looked up, 6-phosphogluconate dehydrogenase Gnd1, S. cerevisiae strain S288C, ORF YHR183W/GND1, 489 residues; residues 1-476 are seen in the crystal structure; The asymmetric unit holds one monomer (final model 1-476 for one monomer); the dimer is described as the biological unit; also called 6PGDH/Gnd1; 6PGDH) MSADFGLIGLAVMGQNLILNAADHGFTVCAYNRTQSKVDHFLANEAKGKSIIGATSIEDFISKLKRPRKVMLLVKAGAPVDALINQIVPLLEKGDIIIDGGNSHFPDSNRRYEELKKKGILFVGSGVSGGEEGARYGPSLMPGGSEEAWPHIKNIFQSISAKSDGEPCCEWVGPAGAGHYVKMVHNGIEYGDMQLICEAYDIMKRLGGFTDKEISDVFAKWNNGVLDSFLVEITRDILKFDDVDGKPLVEKIMDTAGQKGTGKWTAINALDLGMPVTLIGEAVFARCLSALKNERIRASKVLPGPEVPKDAVKDREQFVDDLEQALYASKIISYAQGFMLIREAAATYGWKLNNPAIALMWRGGCIIRSVFLGQITKAYREEPDLENLLFNKFFADAVTKAQSGWRKSIALATTYGIPTPAFSTALSFYDGYRSERLPANLLQAQRDYFGAHTFRVLPECASDNLPVDKDIHINWTGHGGNVSSSTYQA", "values": [{"measurement": "Km", "setting": "purified protein", "result": "35 ± 6", "unit": "µM"}, {"measurement": "stoichiometry N", "setting": "[1]", "result": 2}]}, {"molecule": "Gnd1ΔC35 (domain or fragment, S. cerevisiae, UniProt P38720 1-454, looked up, 6-phosphogluconate dehydrogenase Gnd1, S. cerevisiae, ORF YHR183W/GND1, residues 1-454 of 489 (C-terminal 35 residues deleted); Cloned into the pET28a-derived vector and purified as the full-length protein; also called Gnd1 without the C-terminal 35 residues; source: E. coli Rossetta (DE3), purified (Ni2+ chromatography, Superdex 200 gel filtration)) MSADFGLIGLAVMGQNLILNAADHGFTVCAYNRTQSKVDHFLANEAKGKSIIGATSIEDFISKLKRPRKVMLLVKAGAPVDALINQIVPLLEKGDIIIDGGNSHFPDSNRRYEELKKKGILFVGSGVSGGEEGARYGPSLMPGGSEEAWPHIKNIFQSISAKSDGEPCCEWVGPAGAGHYVKMVHNGIEYGDMQLICEAYDIMKRLGGFTDKEISDVFAKWNNGVLDSFLVEITRDILKFDDVDGKPLVEKIMDTAGQKGTGKWTAINALDLGMPVTLIGEAVFARCLSALKNERIRASKVLPGPEVPKDAVKDREQFVDDLEQALYASKIISYAQGFMLIREAAATYGWKLNNPAIALMWRGGCIIRSVFLGQITKAYREEPDLENLLFNKFFADAVTKAQSGWRKSIALATTYGIPTPAFSTALSFYDGYRSERLPANLLQAQRDYFGAHTF", "values": [{"measurement": "stoichiometry N", "setting": "[2]", "result": 2}]}, {"molecule": "Gnd1ΔC39 (domain or fragment, S. cerevisiae, UniProt P38720 1-450, looked up, 6-phosphogluconate dehydrogenase Gnd1, S. cerevisiae, ORF YHR183W/GND1, residues 1-450 of 489 (C-terminal 39 residues deleted); Cloned into the pET28a-derived vector and purified as the full-length protein; also called Gnd1 without the C-terminal 39 residues; source: E. coli Rossetta (DE3), purified (Ni2+ chromatography, Superdex 200 gel filtration)) MSADFGLIGLAVMGQNLILNAADHGFTVCAYNRTQSKVDHFLANEAKGKSIIGATSIEDFISKLKRPRKVMLLVKAGAPVDALINQIVPLLEKGDIIIDGGNSHFPDSNRRYEELKKKGILFVGSGVSGGEEGARYGPSLMPGGSEEAWPHIKNIFQSISAKSDGEPCCEWVGPAGAGHYVKMVHNGIEYGDMQLICEAYDIMKRLGGFTDKEISDVFAKWNNGVLDSFLVEITRDILKFDDVDGKPLVEKIMDTAGQKGTGKWTAINALDLGMPVTLIGEAVFARCLSALKNERIRASKVLPGPEVPKDAVKDREQFVDDLEQALYASKIISYAQGFMLIREAAATYGWKLNNPAIALMWRGGCIIRSVFLGQITKAYREEPDLENLLFNKFFADAVTKAQSGWRKSIALATTYGIPTPAFSTALSFYDGYRSERLPANLLQAQRDYFG", "values": [{"measurement": "stoichiometry N", "setting": "[2]", "result": 2}]}, {"molecule": "Gnd1ΔC53 (domain or fragment, S. cerevisiae, UniProt P38720 1-436, looked up, 6-phosphogluconate dehydrogenase Gnd1, S. cerevisiae, ORF YHR183W/GND1, residues 1-436 of 489 (C-terminal 53 residues, the entire C-terminal tail, deleted); Cloned into the pET28a-derived vector and purified as the full-length protein; also called Gnd1 without the C-terminal 53 residues; source: E. coli Rossetta (DE3), purified (Ni2+ chromatography, Superdex 200 gel filtration)) MSADFGLIGLAVMGQNLILNAADHGFTVCAYNRTQSKVDHFLANEAKGKSIIGATSIEDFISKLKRPRKVMLLVKAGAPVDALINQIVPLLEKGDIIIDGGNSHFPDSNRRYEELKKKGILFVGSGVSGGEEGARYGPSLMPGGSEEAWPHIKNIFQSISAKSDGEPCCEWVGPAGAGHYVKMVHNGIEYGDMQLICEAYDIMKRLGGFTDKEISDVFAKWNNGVLDSFLVEITRDILKFDDVDGKPLVEKIMDTAGQKGTGKWTAINALDLGMPVTLIGEAVFARCLSALKNERIRASKVLPGPEVPKDAVKDREQFVDDLEQALYASKIISYAQGFMLIREAAATYGWKLNNPAIALMWRGGCIIRSVFLGQITKAYREEPDLENLLFNKFFADAVTKAQSGWRKSIALATTYGIPTPAFSTALSFYDGYRSER", "values": [{"measurement": "stoichiometry N", "setting": "[2]", "result": 2}]}]}
